In this assay the target is recombinant extracellular domain of rabies virus glycoprotein (RABVG, CVS strain) with T4 fibritin t (rabies virus (CVS strain)). The assay can be described thus: SEC; rRABVG on Superdex 200 10/300 GL after HisTrap; single peak. For orientation: In gel filtration, larger molecules generally elute earlier.

As to “recombinant extracellular domain of rabies virus glycoprotein (RABVG, CVS strain) with T4 fibritin t (domain or fragment)”, the stoichiometry N (usually the number of molecules, sites or subunits per partner or assembly) was determined as 3.
